Some targets named below: GP13-Fc (llama (Lama glama)); GP20-Fc (llama (Lama glama)); GP11-Fc (llama (Lama glama)); GP01-Fc (llama (Lama glama)).
What all share (experiment): BLI

B1: recombinant human gp130 with His-tag (Acro, ILT-H52H2) (receptor)
chain: ELLDPCGYISPESPVVQLHSNFTAVCVLKEKCMDYFHVNANYIVWKTNHFTIPKEQYTIINRTASSVTFTDIASLNIQLTCNILTFGQLEQNVYGITIISGLPPEKPKNLSCIVNEGKKMRCEWDGGRETHLETNFTLKSEWATHKFADCKAKRDTPTSCTVDYSTVYFVNIEVWVEAENALGKVTSDHINFDPVYKVKPNPPHNLSVINSEELSSILKLTWTNPSIKSVIILKYNIQYRTKDASTWSQIPPEDTASTRSSFTVQDLKPFTEYVFRIRCMKEDGKGYWSDWSEEASGITYEDRPSKAPSFWYKIDPSHTQGYRTVQLVWKTLPPFEANGKILDYEVTLTRWKSHLQNYTVNATKLTVNLTNDRYLATLTVRNLVGKSDAAVLTIPACDFQATHPVMDLKAFPKDNMLWVEWTTPRESVKKYILEWCVLSDKAPCITDWQQEDGTVHRTYLRGNLAESKCYLITVTPVYADGPGSPESIKAYLKQAPPSKGPTVRTKKVGKNEAVLEWDQLPVDVQNGFIRNYTIFYRTIIGNETAVNVDSSHTEYTLSSLTSDTLYMVRMAAYTDEGGKDGPEFTFTTPKFAQGEIE
On to B1, for which the koff with GP13-Fc was found to be 0.00288 s⁻¹; with GP20-Fc, 0.000737 s⁻¹; in the assay with GP11-Fc, 0.00042 s⁻¹; in the assay with GP01-Fc it was 0.00223 s⁻¹.

As a reminder, the koff is the first-order rate constant of dissociation.
